This is an account of results in the supplement of paper PMC12042874.

± gives the uncertainty stated by the source.

The series can be described thus: amyloid nucleation score (Sup35N fusion, yeast selection) (log enrichment); library NNK3; higher = more nucleation; inactive = no reads after selection. The essentials: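 The nucleation score is the log enrichment of output over input reads, calculated with DiMSum and centred on the mode score of non-aggregating sequences. Sequences with under 100 input reads were excluded. Reads came from Illumina sequencing of plasmid inserts from psi-negative yeast expressing Sup35N fused to peptides of 20 random codons, induced 24 hours with 100 μM copper sulfate and grown 7 days at 30°C without adenine and uracil.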
Turning to SRELNYVVAWIL, the amyloid nucleation score entry is “inactive”.

As to KVSCEYSNNKWF, the amyloid nucleation score entry is “inactive”.

As to WTRCRLTDFYHSGMSYHHSG, the amyloid nucleation score result was “inactive”.

In the case of VYIRQLRMPAFCLTSGRALD, the amyloid nucleation score result is “inactive”.

Take CNKYMKVCLGMGKVQTKNGV: the amyloid nucleation score entry is “inactive”.

On to FAVDFLCHVS, for which the amyloid nucleation score result is “inactive”.

Consider PFGGMVLLILNDAFSMVYVS, for which the amyloid nucleation score entry was “inactive”.

In turn, WKFSISWVYTKME showed an amyloid nucleation score of -0.423 ± 0.75.

Regarding VNSDEPMHWRSSGNYRARIV, the amyloid nucleation score result is “inactive”.

On to CQVGRKRLLYVFTGYK, for which the amyloid nucleation score entry was “inactive”.

On to ARLAFGIGE, for which the amyloid nucleation score result is “inactive”.

For the substance SGNWTDRTVIPYHYYIDKLN, the amyloid nucleation score entry was “inactive”.

In turn, GRSMLMLRTYNM displayed an amyloid nucleation score of -0.056 ± 0.78.

NMFPGSISLEWWGGTQLRWE registered an amyloid nucleation score of 0.909 ± 0.23.

As for EAVSDLNVGPAVRCGG, the amyloid nucleation score entry is “inactive”.

Take DFYRSEQGDWSNLHSC: the amyloid nucleation score result is “inactive”.

Take NFLSSNFKKALHLFPISDCN: the amyloid nucleation score entry was “inactive”.

YSGDSWYVLYVGNPPGDYWR yielded an amyloid nucleation score of 1.66 ± 0.09.

Turning to VEGRMLSYLHVIYMYSGWRK, the amyloid nucleation score entry was “inactive”.

TSWLVWRKGNGLGGNGQQRR: the amyloid nucleation score result is “inactive”.

In the case of SNSLV, the amyloid nucleation score entry is “inactive”.

In the case of WEFSVMSRCRKGHYTALFVV, the amyloid nucleation score entry is “inactive”.

Regarding ALFKTYHLKGMFGKNWVLVV, the amyloid nucleation score result was “inactive”.

As for FSVHRGLLFITQGSDVAEHV, the amyloid nucleation score entry is “inactive”.

For FYFWLASLCSSDFSFYKVKL, the amyloid nucleation score result is “inactive”.

Consider DRCNVGRYLG, for which the amyloid nucleation score result was “inactive”.

On to RQLFWPTPINNFSVVNGILL, for which the amyloid nucleation score entry is “inactive”.

With FYVTMTAASFPDFRHCVVND, the amyloid nucleation score came out at 0.01 ± 0.57.

Regarding GFCKIAAMGFAYHDGAFDGF, the amyloid nucleation score entry was “inactive”.

In the case of LRGTD, the amyloid nucleation score result was “inactive”.

As to TNRMDKYCCV, the amyloid nucleation score result was “inactive”.

For the substance SAYRKTHHSCYNVLYVFMMC, the amyloid nucleation score came to 1.49 ± 0.082.

EVGCV returned an amyloid nucleation score of 0.76 ± 0.14.

Take VIRPGQYVIWFSRVILSFLF: the amyloid nucleation score result is “inactive”.

As to CVGVCKNLNRWFH, the amyloid nucleation score entry was “inactive”.

For the substance PTDDGLSNRMKQMSGHRVLH, the amyloid nucleation score entry was “inactive”.

For STSNFYLWGKPNVLAGMR, the amyloid nucleation score result was “inactive”.

In the case of FLWMSAEGLSK, the amyloid nucleation score result is “inactive”.

Substance SLQISLRYKVIMQRMP registered an amyloid nucleation score of 1.24 ± 0.16.

As for VGGGVPVTLGFSLRRSWSVV, the amyloid nucleation score stood at 0.199 ± 0.62.

Consider FGYHYWVSATCMSLALSWLT, for which the amyloid nucleation score result is “inactive”.

Consider GTSICDVKFAPLYSE, for which the amyloid nucleation score result is “inactive”.

For the substance STIFTVAVFDCNEHLARSKS, the amyloid nucleation score entry was “inactive”.

Regarding FNYMCNLNVCRNIILMTLEL, the amyloid nucleation score amounted to 2.69 ± 0.07.

As for VNFYADRASVHVHSVFHTQD, the amyloid nucleation score result is “inactive”.

On to DIVTTHVGKSLG, for which the amyloid nucleation score result was “inactive”.

MGISLMFESERVSVYEHGNL: the amyloid nucleation score result is “inactive”.

In the case of PVVLLSWELMILLWVNSFAL, the amyloid nucleation score result was “inactive”.

Take HSRRHCFLVSWE: the amyloid nucleation score entry is “inactive”.

For the substance TLHVCIVLSPGRW, the amyloid nucleation score entry is “inactive”.

As for APGIFPMSGMISYSLRV, the amyloid nucleation score entry is “inactive”.

VVCLGTFITGDFIVVYTHYG yielded an amyloid nucleation score of 2.88 ± 0.054.

As for GSGEVWWVGCRTFFKTG, the amyloid nucleation score result is “inactive”.

With YELMIFVTELALLDEILPEQ, the amyloid nucleation score entry was “inactive”.

Take VSYISDQGC: the amyloid nucleation score entry was “inactive”.

For the substance FLNSKGFTIAGYKNSKWGSR, the amyloid nucleation score result was “inactive”.

Consider MRLRLYINVSG, for which the amyloid nucleation score result is “inactive”.

Regarding NGMASMIRGIYNSVPHIRGL, the amyloid nucleation score entry is “inactive”.

For the substance SRVISLFSGVCRGLRGYVNR, the amyloid nucleation score result was “inactive”.

Turning to MGMARWYAKWLGWVLSMYRW, the amyloid nucleation score entry was “inactive”.

Take SGRVTRWITSAMVARN: the amyloid nucleation score entry was “inactive”.

EPESTRMGLSTTILPVFRCL: the amyloid nucleation score was -0.158 ± 0.83.

For FLRCIC, the amyloid nucleation score entry was “inactive”.

KYCGQLQFRCIELEGGIKRE: the amyloid nucleation score result is “inactive”.

For the substance IRMYNSSERFYSPDKRHVPK, the amyloid nucleation score result is “inactive”.

Consider GGYVRSNCGRGVVPMVTRMA, for which the amyloid nucleation score result was “inactive”.

For ITSVTLITNKSKSGIGKVGS, the amyloid nucleation score result is “inactive”.

With SSLFLDCGFGV, the amyloid nucleation score result is “inactive”.

As to YYLVSHWWFGQCFDHVVS, the amyloid nucleation score entry was “inactive”.

For GRIFRLPCYVRLVLVNCRYG, the amyloid nucleation score result was “inactive”.

Consider KMQISTKVCDMDLFCPKTIP, for which the amyloid nucleation score entry is “inactive”.

For ILDAEVFGLISGFMSMHCNA, the amyloid nucleation score result was “inactive”.

LVAKRFISYHLIV: the amyloid nucleation score entry is “inactive”.

As for FGTNVPISNLIKEVLYIRYS, the amyloid nucleation score entry is “inactive”.

Turning to SRWEKSFALICAS, the amyloid nucleation score result was “inactive”.

In the case of SLIVQAL, the amyloid nucleation score result was “inactive”.

In turn, FHQLGICKFKA yielded an amyloid nucleation score of -0.387 ± 0.88.

For the substance IHTGKMLTYCFKSNLSVRTS, the amyloid nucleation score entry is “inactive”.

Take NLIFRFPLAIKWSLFSLDCL: the amyloid nucleation score entry was “inactive”.

For KDVSPVCNVPMSGWWTTAFL, the amyloid nucleation score result is “inactive”.

As for MRSMVKLSCDERVCFVISGE, the amyloid nucleation score result is “inactive”.

Turning to VHFLSTVGMKLTALYKGVVM, the amyloid nucleation score result is “inactive”.

For the substance TCTCKVRLYCTMARSPFIMG, the amyloid nucleation score result is “inactive”.

Consider RTGTNS, for which the amyloid nucleation score result was “inactive”.

Regarding INFCIINNTMV, the amyloid nucleation score stood at 1.75 ± 0.071.

Take ENMIRFLRDSLCGSFYNLPL: the amyloid nucleation score result is “inactive”.

In turn, YCYLGG gave an amyloid nucleation score of -0.36 ± 0.8.

In the case of GCLYGSSSV, the amyloid nucleation score entry is “inactive”.

Take SRYRAEIDARYNFLRGFNAC: the amyloid nucleation score is -0.449 ± 0.8.

For the substance TMHLTHRYSTVLRESLVGSR, the amyloid nucleation score result is “inactive”.

Regarding YMSSYRKEDCGQWLDEWPMA, the amyloid nucleation score entry was “inactive”.

Turning to ARRNYHRAINFGGSCAIINK, the amyloid nucleation score result was “inactive”.

For the substance VPISHLFSLVLVRPRMTSRY, the amyloid nucleation score entry was “inactive”.

Consider TKRWFGLCYESVKLRVRSFA, for which the amyloid nucleation score entry was “inactive”.

For the substance LFCGT, the amyloid nucleation score entry was “inactive”.

For VLGCVGLCYHRYVNALGGAE, the amyloid nucleation score result is “inactive”.

RTCSQTIDIGVRNWINEQIM: the amyloid nucleation score entry is “inactive”.

In the case of HFRYY, the amyloid nucleation score result is “inactive”.

As to NAGYSNRCQIGYICSVRACK, the amyloid nucleation score result was “inactive”.

On to GSLGAMKNQTTASQGAEGAL, for which the amyloid nucleation score result was “inactive”.

On to LSLLSFNGIGHFLIVRKRYK, for which the amyloid nucleation score result is “inactive”.

With YAWLCAASRYKTMVESLAEF, the amyloid nucleation score result is “inactive”.

For the substance TLRLLDTVMWHKLGGTRAMS, the amyloid nucleation score entry is “inactive”.

CLLPFTTGYDFFLHQIEGWG: the amyloid nucleation score entry was “inactive”.

Consider TVGGEIVNSLGVWCYRVCKR, for which the amyloid nucleation score is 0.723 ± 0.26.

As for LSFVP, the amyloid nucleation score result was “inactive”.

Turning to SVIILSCND, the amyloid nucleation score entry is “inactive”.

Take ILRNMDGRRNSVVRDVVRVK: the amyloid nucleation score result was “inactive”.

Regarding YSLGITGPHEAHQIVNLPWW, the amyloid nucleation score result is “inactive”.

For the substance QMCVVPTTY, the amyloid nucleation score result is “inactive”.

For the substance EILVVVPIAGEMSIVFMRGW, the amyloid nucleation score result was “inactive”.

On to VMSSCKIRCNDTRTPAAHIC, for which the amyloid nucleation score entry was “inactive”.

For CHYNFPVPAVKILRGQRNVA, the amyloid nucleation score entry is “inactive”.

In turn, RCSVVTSFQGICMACKYAGG yielded an amyloid nucleation score of 1.26 ± 0.1.

Turning to HFLFVMSCPKWAVRFLAFVD, the amyloid nucleation score entry was “inactive”.

Take DYRTH: the amyloid nucleation score result is “inactive”.

Turning to CEFTAPVICLISLCYVGRSR, the amyloid nucleation score is 1.09 ± 0.094.

As for LKVPSVVNR, the amyloid nucleation score entry is “inactive”.

Regarding VVSLESSAVVNGWLWVLAGA, the amyloid nucleation score result is “inactive”.

Take SYLNVLPNFLRLTAICVVFR: the amyloid nucleation score entry was “inactive”.

For the substance IVNRIVVSSRRFSLVHWGWA, the amyloid nucleation score was 1.73 ± 0.11.

MCVFNNGVGLPDVGVNLAYN: the amyloid nucleation score result is “inactive”.

As to LITCI, the amyloid nucleation score result is “inactive”.

Substance MNRDTYSMWSVKDKMTFI registered an amyloid nucleation score of -0.124 ± 0.75.

Consider VSSMYVVIHGV, for which the amyloid nucleation score entry was “inactive”.

Regarding LGSWLWR, the amyloid nucleation score entry was “inactive”.

With GILRIWNDLSLRFDKIWWG, the amyloid nucleation score entry was “inactive”.

For MMPNELFDPVRKDRSFVRWV, the amyloid nucleation score result was “inactive”.

RGYEQERLWSSVWHFYNHWL: the amyloid nucleation score was 0.405 ± 0.23.

For the substance SGMVCVSLVG, the amyloid nucleation score entry was “inactive”.

For the substance TAESTDCG, the amyloid nucleation score entry was “inactive”.
